According to PMC3969220, “N-terminus oligomerization is conserved in intracellular calcium release channels” (Biochemical Journal, 2014):
Several values for one entry are separate records, joined by “and”; a condition that tells them apart may be missing. Equal values may be shown once.

Tests used:
[1] = molecular target: IP3R1 N-terminal domain (residues 1–667, human IP3R1/SI− co-ordinates), c-Myc- or HA-tagged, in HEK-293 cells (human); test: cross-linking; HEK-293 cell homogenates expressing c-Myc-tagged IP3R1 1-667 constructs, pre-treated with 10 mM DTT, without or with 1 or 10 μM IP3, incubated with glutaraldehyde for the indicated times; SDS/PAGE (6% gels), anti-c-Myc Western blot
[2] = molecular target: calpain-cleaved ~150 kDa N-terminal fragment of native RyR1 from rabbit skeletal muscle SR (rabbit (endogenous in skeletal muscle SR)); test: cross-linking; rabbit skeletal muscle SR pre-treated with 10 mM DTT, cleaved with calpain-2, centrifuged; resuspended SR pellet incubated with 0.0025% glutaraldehyde; SDS/PAGE (4% gels), Western blot with Ab2142
[3] = molecular target: calpain-cleaved ~150 kDa N-terminal fragment of native RyR1 from rabbit skeletal muscle SR (rabbit (endogenous in skeletal muscle SR)); test: cross-linking; rabbit skeletal muscle SR pre-treated with 10 mM DTT, cleaved with calpain-2, centrifuged; supernatant (liberated N-terminal fragment only) incubated with 0.0025% glutaraldehyde; SDS/PAGE (4% gels), Western blot with Ab2142
[4] = molecular target: IP3R1^(1–667, K493A), IP3 binding-deficient mutant, c-Myc-tagged, in HEK-293 cells (human); test: cross-linking; HEK-293 cell homogenates expressing c-Myc-tagged IP3R1 1-667 constructs, pre-treated with 10 mM DTT, without or with 1 or 10 μM IP3, incubated with glutaraldehyde for the indicated times; SDS/PAGE (6% gels), anti-c-Myc Western blot
[5] = molecular target: the molecule itself; test: cross-linking; HEK-293 cell homogenates expressing c-Myc-tagged BT4LR1 or BT4LR3, pre-treated without or with 10 mM DTT, incubated with glutaraldehyde for the indicated times; SDS/PAGE (6% gels), anti-c-Myc Western blot
[6] = molecular target: the molecule itself; test: not stated; unpublished work (M. Seidel and S. Zissimopoulos)

“IP3R1 N-terminal domain (residues 1–667, human IP3R1/SI− co-ordinates), c-Myc- or HA-tagged, in HEK-293 cells (domain or fragment)” was tested, and the stoichiometry N [1] was 4.

“calpain-cleaved ~150 kDa N-terminal fragment of native RyR1 from rabbit skeletal muscle SR (domain or fragment)” was tested, and the stoichiometry N [2] was 2 and 3 and 4 and the stoichiometry N [3] was 2 and 3 and 4.

“IP3R1^(1–667, K493A), IP3 binding-deficient mutant, c-Myc-tagged, in HEK-293 cells (domain or fragment)” gave a stoichiometry N [4] of 4.

B1: c-Myc-tagged RyR3 N-terminal fragment (residues 1–911), BT4LR3, in HEK-293 cells (domain or fragment, rabbit, UniProt Q9TS33 1-911, looked up)
chain: MAEGGEGGEDEIQFLRTEDEVVLQCIATVHKEQRKFCLAAEGLGNRLCFLEPTSEAKFIPPDLCVCNFVLEQSLSVRALQEMLANTGENGGEGAAQGGGHRTLLYGHAILLRHSFSGMYLTCLTTSRSQTDKLAFDVGLREHATGEACWWTIHPASKQRSEGEKVRIGDDLILVSVSSERYLHLSISNGNIQVDASFMQTLWNVHPTCSGSSIEEGYLLGGHVVRLFHGHDECLTIPSTDQNDSQHRRIFYEAGGAGTRARSLWRVEPLRISWSGSNIRWGQAFRLRHLTTGHYLALTEDQGLLLQDRGKADTKSTAFSFRPSKETKEKLDSSHKRDIEGMGVPEIKYGDSVCFVQHIASGLWVTYKAQDAKTSRLGPLKRKVILHQEGHMDDGLTLQRCQREESQAARIIRNTTALFSQFVSGNNRTAAPVTLPIEEVLQTLHDLIAYFQPPEEEMQHEDKQNKLRSLKNRQNLFKEEGMLALVLNCIDRLNIYNSVAHFAGIAREESGMAWKEVLSLLYKLLAALIRGNRNTCAQFSNNLDWLISKLDRLESSSGILEVLHCILIESPEALNLIAEGHIKSIISLLDKHGRNHKVLDVLCSLCLCNGVAVRANQNLICDNLLPRRNLLLQTRLINDVTSIRPNIFLGVAEGSAQYKKWYFELIIDQVDPFLTAEPTHLRVGWASSSGYAPYPGGGEGWGGNGVGDDLYSYGFDGLHLWSGRIPRAVASINQHLLKSDDVVSCCLDLGVPSISFRINGQPVQGMFENFNTDGLFFPVMSFSAGVKVRFLMGGRHGEFKFLPPSGYAPCYEALLPKEKMRLEPVKEYKRDAEGVRDLLGTTQFLSQASFIPCPIDTSQVVLPPHLEKIRDRLAENIHELWGMNKIELGWTFGKMRDDNKRQHPCLVEFSKL
notes: ryanodine receptor 3 (RyR3), rabbit, residues 1-911; also called c-Myc–BT4LR3
With B1 the “stoichiometry N” value [5] was 4.

B2: truncated RyR2 N-terminal fragment (residues 1–654), of the unpublished observation (domain or fragment, human, UniProt Q92736 1-654, looked up)
chain: MADGGEGEDEIQFLRTDDEVVLQCTATIHKEQQKLCLAAEGFGNRLCFLESTSNSKNVPPDLSICTFVLEQSLSVRALQEMLANTVEKSEGQVDVEKWKFMMKTAQGGGHRTLLYGHAILLRHSYSGMYLCCLSTSRSSTDKLAFDVGLQEDTTGEACWWTIHPASKQRSEGEKVRVGDDLILVSVSSERYLHLSYGNGSLHVDAAFQQTLWSVAPISSGSEAAQGYLIGGDVLRLLHGHMDECLTVPSGEHGEEQRRTVHYEGGAVSVHARSLWRLETLRVAWSGSHIRWGQPFRLRHVTTGKYLSLMEDKNLLLMDKEKADVKSTAFTFRSSKEKLDVGVRKEVDGMGTSEIKYGDSVCYIQHVDTGLWLTYQSVDVKSVRMGSIQRKAIMHHEGHMDDGISLSRSQHEESRTARVIRSTVFLFNRFIRGLDALSKKAKASTVDLPIESVSLSLQDLIGYFHPPDEHLEHEDKQNRLRALKNRQNLFQEEGMINLVLECIDRLHVYSSAAHFADVAGREAGESWKSILNSLYELLAALIRGNRKNCAQFSGSLDWLISRLERLEASSGILEVLHCVLVESPEALNIIKEGHIKSIISLLDKHGRNHKVLDVLCSLCVCHGVAVRSNQHLICDNLLPGRDLLLQTRLVNHVSS
notes: may be the same construct as m10
In the case of B2, the “stoichiometry N” value [6] is reported as 4.

B3: c-Myc-tagged RyR1 N-terminal fragment (residues 1–915), BT4LR1, in HEK-293 cells (domain or fragment, rabbit, UniProt P11716 1-915, looked up)
chain: MGDGGEGEDEVQFLRTDDEVVLQCSATVLKEQLKLCLAAEGFGNRLCFLEPTSNAQNVPPDLAICCFTLEQSLSVRALQEMLANTVEAGVESSQGGGHRTLLYGHAILLRHAHSRMYLSCLTTSRSMTDKLAFDVGLQEDATGEACWWTMHPASKQRSEGEKVRVGDDLILVSVSSERYLHLSTASGELQVDASFMQTLWNMNPICSCCEEGYVTGGHVLRLFHGHMDECLTISAADSDDQRRLVYYEGGAVCTHARSLWRLEPLRISWSGSHLRWGQPLRIRHVTTGRYLALTEDQGLVVVDACKAHTKATSFCFRVSKEKLDTAPKRDVEGMGPPEIKYGESLCFVQHVASGLWLTYAAPDPKALRLGVLKKKAILHQEGHMDDALFLTRCQQEESQAARMIHSTAGLYNQFIKGLDSFSGKPRGSGPPAGPALPIEAVILSLQDLIGYFEPPSEELQHEEKQSKLRSLRNRQSLFQEEGMLSLVLNCIDRLNVYTTAAHFAEYAGEEAAESWKEIVNLLYELLASLIRGNRANCALFSTNLDWVVSKLDRLEASSGILEVLYCVLIESPEVLNIIQENHIKSIISLLDKHGRNHKVLDVLCSLCVCNGVAVRSNQDLITENLLPGRELLLQTNLINYVTSIRPNIFVGRAEGSTQYGKWYFEVMVDEVVPFLTAQATHLRVGWALTEGYSPYPGGGEGWGGNGVGDDLYSYGFDGLHLWTGHVARPVTSPGQHLLAPEDVVSCCLDLSVPSISFRINGCPVQGVFEAFNLDGLFFPVVSFSAGVKVRFLLGGRHGEFKFLPPPGYAPCHEAVLPRERLRLEPIKEYRREGPRGPHLVGPSRCLSHTDFVPCPVDTVQIVLPPHLERIREKLAENIHELWALTRIEQGWTYGPVRDDNKRLHPCLVNFHSLPE
notes: ryanodine receptor 1 (RyR1), rabbit, residues 1-915; also called c-Myc–BT4LR1
For B3, the “stoichiometry N” value [5] was 4.
